# Measurements from IntAct's records for PubMed 19966800.
# Target: caga_helpy cagA (UniProt P55980)
# Sequence (P55980 whole entry): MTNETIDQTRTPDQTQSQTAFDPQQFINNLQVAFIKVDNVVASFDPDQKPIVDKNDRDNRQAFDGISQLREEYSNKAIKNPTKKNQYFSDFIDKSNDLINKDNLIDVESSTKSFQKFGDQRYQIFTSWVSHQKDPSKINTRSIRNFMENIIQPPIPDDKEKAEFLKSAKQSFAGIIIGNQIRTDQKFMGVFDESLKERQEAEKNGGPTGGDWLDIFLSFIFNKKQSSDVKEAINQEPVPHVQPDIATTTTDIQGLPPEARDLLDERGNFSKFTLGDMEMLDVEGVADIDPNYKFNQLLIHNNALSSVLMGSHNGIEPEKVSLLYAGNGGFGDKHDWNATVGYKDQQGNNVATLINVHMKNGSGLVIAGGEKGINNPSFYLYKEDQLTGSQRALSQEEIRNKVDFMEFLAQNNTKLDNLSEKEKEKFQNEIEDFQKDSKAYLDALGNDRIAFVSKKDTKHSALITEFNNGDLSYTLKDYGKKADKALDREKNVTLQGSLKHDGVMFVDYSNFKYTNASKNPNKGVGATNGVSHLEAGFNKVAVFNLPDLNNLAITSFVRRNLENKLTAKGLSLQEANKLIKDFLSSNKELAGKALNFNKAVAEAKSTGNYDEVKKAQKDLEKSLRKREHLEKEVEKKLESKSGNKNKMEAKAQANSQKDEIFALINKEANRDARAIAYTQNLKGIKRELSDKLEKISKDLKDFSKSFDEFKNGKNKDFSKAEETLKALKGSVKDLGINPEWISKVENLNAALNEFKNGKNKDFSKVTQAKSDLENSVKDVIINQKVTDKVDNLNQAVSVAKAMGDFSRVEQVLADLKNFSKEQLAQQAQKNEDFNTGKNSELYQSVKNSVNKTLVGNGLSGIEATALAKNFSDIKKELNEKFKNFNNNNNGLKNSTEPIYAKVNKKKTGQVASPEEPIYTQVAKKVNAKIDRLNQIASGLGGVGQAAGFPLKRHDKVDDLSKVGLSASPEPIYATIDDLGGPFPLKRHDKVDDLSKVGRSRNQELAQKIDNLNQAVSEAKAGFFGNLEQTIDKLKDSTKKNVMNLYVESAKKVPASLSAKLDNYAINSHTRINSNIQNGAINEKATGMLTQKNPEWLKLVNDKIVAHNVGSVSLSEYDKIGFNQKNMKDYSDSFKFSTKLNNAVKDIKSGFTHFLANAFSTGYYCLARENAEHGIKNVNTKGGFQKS
substance,measurement,value
"Serine/threonine-protein kinase MARK2 (Homo sapiens), Q7KZI7 E136G;F138G;D139G",effect of a mutation on the interaction,disrupting interaction
